Data from article PMC7538681.

Key:
[1] = molecular target: N-terminal His-tagged SmYrbA (Sinorhizobium meliloti (strain Sm2011)); assay: switchSENSE; His-tagged SmYrbA held on Ni-NTA3-tagged 48mer DNA nanolevers on the chip; SmGrx2 injected at 25, 50 and 100 µM; 10 mM potassium phosphate pH 7.4, 2 mM MgCl2; 25°C; switching dynamic mode; single-exponential fits; Kd = koff/kon
[2] = molecular target: Sinorhizobium meliloti glutaredoxin 2 (SmGrx2), untagged (Sinorhizobium meliloti (strain Sm2011)); assay: ITC; SmGrx2 (50 µM, in the cell) titrated with SmYrbA (800 µM), 30 mM phosphate buffer pH 8.0, 20°C, one-set-of-sites model, duplicate

N-terminal His-tagged SmYrbA (Sinorhizobium meliloti (strain Sm2011)), sequence (main, as listed by the source): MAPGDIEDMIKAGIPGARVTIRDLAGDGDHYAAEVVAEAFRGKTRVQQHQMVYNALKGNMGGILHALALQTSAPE

Substance “Sinorhizobium meliloti glutaredoxin 2 (SmGrx2), untagged (natural protein)” has a Kd [1] of 5.6 µM, a dissociation halftime [1] of 50 s and a koff [1] of 0.014 s⁻¹. It also gave a kon [1] of 2410 M⁻¹ s⁻¹.

“Sinorhizobium meliloti YrbA (SmYrbA), untagged (natural protein)” gave a Kd [2] of 6.8 µM, a dH [2] of -2.9 kcal/mol and a stoichiometry N [2] of 1.27.
